Experimental findings from patent US20210301005A1 (Genentech, published 2021) are described below.

Assay [1] addresses T1, human TGFβ1, mature receptor-binding domain (human, UniProt P01137 279-390).
T1 construct: Peprotech; also called TGFb1
Kind of assay: BIAcore T200. The method, then: (§1) For binding affinity determinations of all humanized 2A10 antibodies, Surface Plasmon Resonance (SPR) measurement with a BIAcore™-T200 instrument was used. Briefly, series S CM5 biosensor chip with protein A was first applied to capture each humanized 2A10 variant to achieve approximately 100 response units (RU) on each flow cell, following by injection of 3-fold serial dilutions of human TGFβ1, TGFβ2 or TGFβ3 (0.02 nM to 5 nM) in HBS-EP buffer (0.01M HEPES pH 7.4, 0.15M NaCl, 3 mM EDTA and 0.05% v/v surfactant P20) at 25° C. with a flow rate of 50 μl/min for kinetics measurement. Association rates (ko.) and dissociation rates (koff) were calculated using a simple one-to-one Langmuir binding model (BIAcore T200 evaluation software version 2.0) to determine the equilibrium dissociation constant (KD), which was calculated as the ratio koff/kₒₙ.
(§2) Binding affinity determinations of all humanized 4A11 antibodies were performed using SPR measurement with a BIAcore™-T200 instrument, as described above in Example 6 ([…]).

Assay [2] addresses T2, human TGFβ3, mature dimeric form (human, UniProt P10600 301-412).
T2 construct: Peprotech, expressed in E. coli; also called TGFb3
T2 sequence: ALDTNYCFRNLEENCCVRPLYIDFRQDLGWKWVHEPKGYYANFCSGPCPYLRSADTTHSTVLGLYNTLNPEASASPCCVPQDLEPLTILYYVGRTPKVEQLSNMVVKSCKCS
Kind of assay: BIAcore T200. The method, then:
as §1, §2
Background: In SPR one partner is held on a chip, and binding of the other changes the refractive index at the surface.

Assay [3] concerns the target T3, human TGFβ2, mature receptor-binding domain (human, UniProt P09858 303-414 (pig entry), The mature TGFβ2 is a disulfide-linked homodimer of this 112-residue chain. The 4A11 epitope spans both monomers (p-1207).).
T3 construct: Peprotech; also called TGFb2
T3 sequence: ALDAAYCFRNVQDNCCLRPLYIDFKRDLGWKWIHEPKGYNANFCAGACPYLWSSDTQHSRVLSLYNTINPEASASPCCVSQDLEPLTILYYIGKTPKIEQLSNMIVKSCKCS
Kind of assay: BIAcore T200. On the procedure: as §1, §2

Assay [4] has as its target T1, human TGFβ1, mature receptor-binding …. Kind of assay: cell-based or functional assay.
Assay [5] concerns the target T2, human TGFβ3, mature dimeric form. Kind of assay: cell-based or functional assay.
The target of assay [6] is T3, human TGFβ2, mature receptor-binding …. Kind of assay: cell-based or functional assay.
In assay [7] the target is T1, human TGFβ1, mature receptor-binding …. Kind of assay: cell-based or functional assay. The source holds these as a separate data set.
The target of assay [8] is T2, human TGFβ3, mature dimeric form. Kind of assay: cell-based or functional assay. The source holds these as a separate data set.
In assay [9] the target is T3, human TGFβ2, mature receptor-binding …. Kind of assay: cell-based or functional assay. The source holds these as a separate data set.

Like-named read-outs stand apart in the source and are kept apart here. A value given as a limit tells only on which side of the number the result lay.

T1 sequence (P01137 279-390 limits assumed): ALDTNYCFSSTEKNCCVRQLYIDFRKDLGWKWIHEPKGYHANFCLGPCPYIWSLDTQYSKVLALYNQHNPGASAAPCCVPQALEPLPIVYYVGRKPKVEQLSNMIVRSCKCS

B1: 4A11 (antibody, V domains shown)
VH: QSLEESGGRLVTPGTPLTLTCTVSGFSLSSYTVNWVRQAPGKGLEWIGYISYGGSAYYASWANGRFTISKTSATVDLKITSPTTEDTATYFCARHMQVGGAPTGSMAAFDPWGPGTLVTVSS
VL: AAVLTQTPSPVSAAVGGTVSISCQSSQSVYNNNYLSWFQQKPGQPPKLLIYGASTLTSGVPSRFKGSGSGTQFTLTISDVQCDDAATYYCAGGYSGSSDKYAFGGGTEVVVKG
notes: anti-TGFβ2/3, recombinant rabbit monoclonal; some paragraphs print the H/L pair as 32/33; also called Rb1.4A11; Rbt 4A11
Consider B1, for which the Kd (in general, the concentration at which binding is half-saturated) in assay [1] is > 5 nM; in assay [2] it was ≤ 0.0012 nM; in assay [3] it was 0.0016 nM. Further, the “HEKBlue TGFβ blocking IC50” value in assay [4] is > 200 nM; in assay [5], 0.06 nM; in [6], 0.09 nM; in [7] it was > 200 nM; in assay [8], 0.06 nM; in assay [9], 0.09 nM.
